T1: mouse MAdCAM expressed on cells (mouse, UniProt Q61826 22-405)
T1 construct: whole, on cells
T1 sequence (looked up): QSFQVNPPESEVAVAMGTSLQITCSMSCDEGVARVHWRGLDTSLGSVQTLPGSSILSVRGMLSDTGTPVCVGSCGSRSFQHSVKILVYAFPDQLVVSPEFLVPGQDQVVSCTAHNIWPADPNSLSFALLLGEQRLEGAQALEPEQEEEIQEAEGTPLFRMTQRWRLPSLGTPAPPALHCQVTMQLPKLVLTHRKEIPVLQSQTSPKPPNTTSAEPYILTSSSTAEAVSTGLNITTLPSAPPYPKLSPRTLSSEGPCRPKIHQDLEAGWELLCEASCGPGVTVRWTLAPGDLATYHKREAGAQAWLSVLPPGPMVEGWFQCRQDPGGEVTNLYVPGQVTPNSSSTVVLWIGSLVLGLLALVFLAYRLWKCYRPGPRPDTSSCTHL

T2: human MAdCAM expressed on cells (human, UniProt Q13477 19-382)
T2 construct: whole, on cells; also called MADCAM1
T2 sequence (looked up): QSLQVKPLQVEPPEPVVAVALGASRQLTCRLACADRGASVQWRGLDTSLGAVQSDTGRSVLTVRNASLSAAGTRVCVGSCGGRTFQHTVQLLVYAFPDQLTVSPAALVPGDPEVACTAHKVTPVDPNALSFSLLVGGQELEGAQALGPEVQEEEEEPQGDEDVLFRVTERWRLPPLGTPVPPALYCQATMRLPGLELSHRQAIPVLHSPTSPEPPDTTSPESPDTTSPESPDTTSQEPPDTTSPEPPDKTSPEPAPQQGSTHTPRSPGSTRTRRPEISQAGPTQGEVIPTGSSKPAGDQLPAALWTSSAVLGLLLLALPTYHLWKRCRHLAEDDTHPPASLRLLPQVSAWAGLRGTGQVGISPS

B1: MAdCAM Antibody Table 1 Clone 65 (scFv)
scFv: QVQLVQSGAEVKKPGASVKVSCKASGYTFTRHWIHWVRQAPGQGLEWMGWINVKTGGAGYAQKFQGRVTMTRDTSTSTVYMELSSLRSEDTAVYYCARESSGWYGTDVWGQGTTVTVSSGGGGSGGGGSGGGGSGGGGSDIQMTQSPSSLSASVGDRATITCRASQSISNYLAWYQQKPGKAPKLLIYAASSLQSGVPSRFSGSGSGTDFTLTISSLQPEDFATYYCQQSNSFPLTFGGGTKVEIK
B2: MAdCAM Antibody Table 1 Clone 66 (scFv)
scFv: EVQLLESGGGLVQPGGSLRLSCAASGFTFSSYWMHWVRQAPGKGLEWVAAISYDGKYKDYEDSVKGRFTISRDNSKNTLYLQMNSLRAEDTAVYYCARENKQWLASFDYWGQGTLVTVSSGGGGSGGGGSGGGGSGGGGSDIQMTQSPSSLSASVGDRVTITCQASQDISNFVNWYQQKPGKAPKLLIYAANLRSGVPSRFSGSGSGTDFTLTISSLQPEDFATYYCQQANSFPVTFGPGTKVDIK
B3: MAdCAM Antibody Table 1 Clone 63 (scFv)
scFv: EVQLLESGGGLVKPGGSLRLSCAASGFTFDDYAMHWVRQAPGKGLEWVASITSSSAFIDYAASVKGRFTISRDDSKNTLYLQMNSLKTEDTAVYYCARERVDWNSYFDLWGRGTLVTVSSGGGGSGGGGSGGGGSGGGGSEIVMTQSPATLSVSPGERATLSCRASQGISNSYLAWYQQKPGQAPRLLIYGASTRATGIPARFSGSGSGTEFTLTISSLQSEDFAVYYCQQYYTYPPTFGPGTKVDIK
B4: MAdCAM Antibody Table 1 Clone 60 (scFv)
scFv: EVQLLESGGGLVQPGGSLRLSCAASGFTFDDYTMHWVRQAPGKGLEWVSDISGSGGSTYYADSVKGRFTISRDNSKNTLYLQMNSLRAEDTAVYYCAKDVVVAGTPLHFDYWGQGTLVTVSSGGGGSGGGGSGGGGSGGGGSDIQMTQSPSSLSASVGDRVTITCQASQDISNYLNWYQQKPGKAPKLLIYAASYLQSGVPSRFSGSGSGTDFTLTISSLQPEDFATYYCQQAHNYPITFGQGTRLEIK
B5: MAdCAM Antibody Table 1 Clone 61 (scFv)
scFv: EVQLLESGGGLVQPGGSLRLSCAASEFTFSNAWMSWVRQAPGKGLEWVASISSTSAYIDYADSVKGRFTISRDNSKNTLYLQMNSLRAEDTAVYYCAREVVGATTFDYWGQGTLVTVSSGGGGSGGGGSGGGGSGGGGSDIQMTQSPSSLSASVGDRVTITCRASQSISTWLAWYQQKPGKAPKLLIYAASSLQSGVPSRFSGSGSGTDFTLTISSLQPEDFATYYCQQANAFPPTFGQGTRLEIK
B6: MAdCAM Antibody Table 1 Clone 64 (scFv)
scFv: EVQLLESGGGLVKPGGSLRLSCAASGFAFSSHWMHWVRQAPGKGLEWVAGTSGSGESRDYADFVKGRFTISRDDSKNTLYLQMNSLKTEDTAVYYCARETYYYYYMDVWGKGTTVTVSSGGGGSGGGGSGGGGSGGGGSDIQMTQSPSSLSASVGDRVTITCRASQGISNYLAWYQQKPGKAPKLLIYDAANLEGGVPSRFSGSGSGTDFTLTISSLQPEDFATYYCQQSDIFPPTFGQGTKVEIK
B7: MAdCAM Antibody Table 1 Clone 59 (scFv)
scFv: EVQLLESGGGLVQPGGSLRLSCAASGFTFSDFWMHWVRQAPGKGLEWISYISGDSGYTNYADSVKGRFTISRDNSKNTLYLQMNSLRAEDTAVYYCARDRPYYYYMDVWGKGTTVTVSSGGGGSGGGGSGGGGSGGGGSDIQMTQSPSSLSASVGDRVTITCRASQSVSRSLAWYQQKPGKAPKLLIYAASSLQSGVPSRFSGSGSGTDFTLTISSLQPEDFATYYCQQYKSYPVTFGQGTKVEIK

Biological target: T1, mouse MAdCAM expressed on cells
Assay: cell binding

Binding result, binds:
B1
B2
B3
B4
B5
B6
B7

Biological target: T2, human MAdCAM expressed on cells
Assay: cell binding

Binding result, binds:
B1
B2
B3
B4
B5
B6
B7

Source: patent US20210206856A1 (PANDION OPERATIONS, published 2021)
